{"source": "patent US20150010574A1", "about": "(Boehringer Ingelheim, published 2015)", "binders": {"B1": {"name": "antibody 60833 (antibody, human IgG1, lambda, V domains shown)", "VH": "QVELVESGGGLVQPGGSLRLSCAASGFTFTSYWMSWVRQAPGKGLELVSSITSYGSFTYYADSVKGRFTISRDNSKNTLYLQMNSLRAEDTAVYYCARNMYTHFDSWGQGTLVTVSS", "VL": "DIVLTQPPSVSGAPGQRVTISCSGSSSNIGSNSVSWYQQLPGTAPKLLIYDNSKRPSGVPDRFSGSKSGTSASLAITGLQSEDEADYYCQSRDTYGYYWVFGGGTKLTVLG", "notes": "Fully human IgG1 with Ig lambda light chain"}, "B2": {"name": "antibody 60814 (antibody, human IgG1, lambda, V domains shown)", "VH": "QVELVESGGGLVQPGGSLRLSCAASGFTFSNYWMHWVRQAPGKGLEWVSGISGWSSWTYYADSVKGRFTISRDNSKNTLYLQMNSLRAEDTAVYYCARFGIDAYTKVYFDYWGQGTLVTVSS", "VL": "DIELTQPPSVSVAPGQTARISCSGDNIPLKYVSWYQQKPGQAPVLVIHDDNKRPSGIPERFSGSNSGNTATLTISGTQAEDEADYYCSSWDTLDIFNVFGGGTKLTVLG", "notes": "as for B1"}, "B3": {"name": "antibody 60819 (antibody, human IgG1, lambda, V domains shown)", "VH": "B2 VH", "VL": "B2 VL with S88Q, W90Y, T92Y, L93F, D94P, I95K, N97V", "notes": "as for B1"}}, "key": {"human IGF-1 [1]": {"target": "T1, human IGF-1 (human, UniProt P05019 49-118)", "T1 sequence (P05019 49-118)": "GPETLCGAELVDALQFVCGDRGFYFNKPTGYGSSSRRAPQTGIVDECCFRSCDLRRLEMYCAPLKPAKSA", "assay": "cell-based or functional assay"}, "human IGF-2 [2]": {"target": "T2, human IGF-2 (human, UniProt P01344 25-91)", "T2 sequence (P01344 25-91 limits assumed)": "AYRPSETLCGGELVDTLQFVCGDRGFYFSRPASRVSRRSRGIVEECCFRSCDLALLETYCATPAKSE", "assay": "cell-based or functional assay"}, "human IGF-2 [3]": {"target": "T2, human IGF-2", "assay": "cell-based or functional assay", "remark": "listed apart in the source"}, "human IGF-1 [4]": {"target": "T1, human IGF-1", "assay": "cell-based or functional assay", "remark": "listed apart in the source"}, "human IGF-2 [5]": {"target": "T2, human IGF-2", "assay": "cell-based or functional assay", "remark": "listed apart in the source"}, "human IGF-1 [6]": {"target": "T1, human IGF-1", "assay": "electrochemiluminescence-based equilibrium titration (BioVeris)"}, "rat IGF-2 [7]": {"target": "T3, rat IGF-2 (rat, UniProt P01346 25-91)", "T3 construct": "Bought recombinant protein", "T3 sequence (P01346 25-91 limits assumed)": "as the sequence (P01344 25-91 limits assumed) above, with G22S, A32S, V35A, S36N counted along it", "assay": "SPR (Biacore 3000), antibody captured by anti-human Fc, IGF antigen flowed, 25 C", "procedure": "(§1) The sensor chip is coated with approximately 1000 RU of the reference antibody in flow cell 1 and approximately 1000 RU of a rabbit-anti-human Fc-gamma-specific antibody in flow cell 2 using the coupling reagents from an amine coupling kit. A target of 1000 RU is set in the surface preparation wizard of the Biacore 3000 software at a flow rate of 5 μl/min Running buffer used is HBS-EP. […] Blank runs using running buffer only are run in-between. A blank run curve is subtracted from each binding curve before affinity analysis. Data evaluation is performed using the BIAevaluation software (version 4.1, Biacore, Freiburg, Germany). The dissociation and association phases of the kinetics are fitted separately. For the separate fit of the kdiss values a time-frame of the initial 200-300 seconds in the dissociation phase is used (range of steady decrease of signal). For the separate fit of the kₐₛₛ values, initial time frames of approx 100 seconds are used (range of steady increase of signal) and for calculation the individual kdiss values are used with the 1:1 Langmuir association model. The average values with the standard deviations of the kinetic data together with the corresponding dissociation (KD) and association (KA) constants are calculated."}, "human IGF-1 [8]": {"target": "T1, human IGF-1", "assay": "SPR (Biacore 3000), antibody captured by anti-human Fc, IGF antigen flowed, 25 C", "procedure": "as §1"}, "mouse IGF-1 [9]": {"target": "T4, mouse IGF-1 (mouse, UniProt P05017 49-118)", "T4 construct": "Bought recombinant protein; also called murine IGF-1", "T4 sequence (P05017 49-118 limits assumed)": "as the sequence (P05019 49-118) above, with D20P, S35I, A67T, S69A counted along it", "assay": "SPR (Biacore 3000), antibody captured by anti-human Fc, IGF antigen flowed, 25 C", "procedure": "as §1"}, "rat IGF-1 [10]": {"target": "T5, rat IGF-1 (rat, UniProt P08025 49-118)", "T5 construct": "Bought recombinant protein", "T5 sequence (P08025 49-118 limits assumed)": "as the sequence (P05019 49-118) above, with D20P, S35I, A67T counted along it", "assay": "SPR (Biacore 3000), antibody captured by anti-human Fc, IGF antigen flowed, 25 C", "procedure": "as §1"}, "human IGF-2 [11]": {"target": "T2, human IGF-2", "assay": "SPR (Biacore 3000), antibody captured by anti-human Fc, IGF antigen flowed, 25 C", "procedure": "as §1"}, "mouse IGF-2 [12]": {"target": "T6, mouse IGF-2 (mouse, UniProt P09535 25-91)", "T6 construct": "Bought recombinant protein; also called murine IGF-2", "T6 sequence (P09535 25-91 limits assumed)": "as the sequence (P01344 25-91 limits assumed) above, with R3G, S5G, G22S, A32S, V35A, S36N counted along it", "assay": "SPR (Biacore 3000), antibody captured by anti-human Fc, IGF antigen flowed, 25 C", "procedure": "as §1"}, "human insulin": {"target": "T7, human insulin (human, UniProt P01308 25-54; P01308 90-110)", "T7 construct": "Bought (Roche); coated at 3 ug/ml in the ELISA", "T7 sequence (P01308 25-54 limits assumed, chain 1 of 2)": "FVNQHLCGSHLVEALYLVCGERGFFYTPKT", "T7 sequence (P01308 90-110 limits assumed, chain 2 of 2)": "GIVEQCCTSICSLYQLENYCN", "assay": "direct ELISA, human insulin coated at 3 ug/ml, anti-human IgG-HRPO, OD 450 nm", "procedure": "Fully human IgG1 antibodies that bound with high affinity to IGF-1 are also tested for binding to human IGF-1 in direct immunosorbent assays (ELISA). Assays are performed by coating human IGF-1 (R&D Systems, No. 291-G1) to 96-well Maxisorb plates at a concentration of 0.5 μg/ml overnight at 4° C. (100 μl/well). Coating buffer alone is used as a control for unspecific binding. Wells are then washed once with washing buffer (1×TBS-T) and residual binding sites are blocked with 200 μl blocking buffer for 1 hour at room temperature on an orbital shaker followed by a further wash cycle. Serial three-fold dilutions of each test antibody in blocking buffer are prepared directly on the coated plates. […] Blocking buffer alone is used as a positive control. The plates are then incubated for 2 hours at room temperature with agitation. After three wash cycles 100 μl/well of HRPO-conjugated anti-human IgG secondary reagent (Jackson ImmunoResearch Inc.) diluted in blocking buffer is added to all wells. After 2 hours incubation at room temperature with agitation the plates are washed three-times and 100 μl/well of TMB substrate solution (equal amounts of solution A and B) are pipetted into all wells. The plates are incubated for 10-20 min at RT with agitation and then the reaction is stopped by addition of 100 μl/well 1 M phosphoric acid. The absorbance is measured at a wavelength of 450 nm (reference 650 nm)."}, "rat IGF-1 [13]": {"target": "T5, rat IGF-1", "assay": "direct ELISA, rat IGF-1 coated on the plate, anti-human IgG-HRPO, OD 450 nm", "procedure": "(§2) Fully human IgG1 antibodies that bound with high affinity to IGF-1 are also tested for binding to human IGF-1 in direct immunosorbent assays (ELISA). Assays are performed by coating human IGF-1 (R&D Systems, No. 291-G1) to 96-well Maxisorb plates at a concentration of 0.5 μg/ml overnight at 4° C. (100 μl/well). Coating buffer alone is used as a control for unspecific binding. Wells are then washed once with washing buffer (1×TBS-T) and residual binding sites are blocked with 200 μl blocking buffer for 1 hour at room temperature on an orbital shaker followed by a further wash cycle. Serial three-fold dilutions of each test antibody in blocking buffer are prepared directly on the coated plates. […] Blocking buffer alone is used as a positive control. The plates are then incubated for 2 hours at room temperature with agitation. After three wash cycles 100 μl/well of HRPO-conjugated anti-human IgG secondary reagent (Jackson ImmunoResearch Inc.) diluted in blocking buffer is added to all wells. After 2 hours incubation at room temperature with agitation the plates are washed three-times and 100 μl/well of TMB substrate solution (equal amounts of solution A and B) are pipetted into all wells. […] The absorbance is measured at a wavelength of 450 nm (reference 650 nm)."}, "rat IGF-2 [14]": {"target": "T3, rat IGF-2", "assay": "direct ELISA, rat IGF-2 coated on the plate, anti-human IgG-HRPO, OD 450 nm", "procedure": "as §2"}, "mouse IGF-1 [15]": {"target": "T4, mouse IGF-1", "assay": "direct ELISA, mouse IGF-1 coated on the plate, anti-human IgG-HRPO, OD 450 nm", "procedure": "as §2"}, "mouse IGF-2 [16]": {"target": "T6, mouse IGF-2", "assay": "direct ELISA, mouse IGF-2 coated on the plate, anti-human IgG-HRPO, OD 450 nm", "procedure": "as §2"}}, "note": "Positions count from the first letter of the chain named."}
{"binder": "B1", "values": [{"measurement": "IC50 of IGF-1 (20 ng/mL) induced IGF-1R phosphorylation, cell based ELISA", "setting": "human IGF-1 [1]", "result": 0.09, "unit": "µg/mL"}, {"measurement": "IC50 of IGF-2 (100 ng/mL) induced IGF-1R phosphorylation, cell based ELISA", "setting": "human IGF-2 [2]", "result": 1.12, "unit": "µg/mL"}, {"measurement": "IC50 of IGF-2 (100 ng/mL) induced IR-A phosphorylation, cell based ELISA", "setting": "human IGF-2 [3]", "result": 0.82, "unit": "µg/mL"}, {"measurement": "IC50 of IGF-1 induced COLO-205 cell proliferation", "setting": "human IGF-1 [4]", "result": 0.165, "unit": "µg/mL"}, {"measurement": "IC50 of IGF-1 induced MCF7 cell proliferation", "setting": "human IGF-1 [4]", "result": 0.0386, "unit": "µg/mL"}, {"measurement": "IC50 of IGF-2 induced COLO 205 cell proliferation", "setting": "human IGF-2 [5]", "result": 0.632, "unit": "µg/mL"}, {"measurement": "IC50 of IGF-2 induced MCF7 cell proliferation", "setting": "human IGF-2 [5]", "result": 0.0812, "unit": "µg/mL"}, {"measurement": "Kd", "setting": "human IGF-1 [6]", "result": 130, "unit": "pM"}, {"measurement": "Kd", "setting": "rat IGF-2 [7]", "result": 2410, "unit": "pM"}, {"measurement": "koff", "setting": "rat IGF-2 [7]", "result": 0.00613, "unit": "s⁻¹"}, {"measurement": "kon", "setting": "rat IGF-2 [7]", "result": "2.56e+06", "unit": "M⁻¹ s⁻¹"}, {"measurement": "Kd", "setting": "human IGF-1 [8]", "result": 70, "unit": "pM"}, {"measurement": "koff", "setting": "human IGF-1 [8]", "result": 0.000301, "unit": "s⁻¹"}, {"measurement": "kon", "setting": "human IGF-1 [8]", "result": "4.74e+06", "unit": "M⁻¹ s⁻¹"}, {"measurement": "Kd", "setting": "mouse IGF-1 [9]", "result": 330, "unit": "pM"}, {"measurement": "koff", "setting": "mouse IGF-1 [9]", "result": 0.000323, "unit": "s⁻¹"}, {"measurement": "kon", "setting": "mouse IGF-1 [9]", "result": "1e+06", "unit": "M⁻¹ s⁻¹"}, {"measurement": "Kd", "setting": "rat IGF-1 [10]", "result": 70, "unit": "pM"}, {"measurement": "koff", "setting": "rat IGF-1 [10]", "result": 0.000253, "unit": "s⁻¹"}, {"measurement": "kon", "setting": "rat IGF-1 [10]", "result": "3.81e+06", "unit": "M⁻¹ s⁻¹"}, {"measurement": "Kd", "setting": "human IGF-2 [11]", "result": 913, "unit": "pM"}, {"measurement": "koff", "setting": "human IGF-2 [11]", "result": 0.00353, "unit": "s⁻¹"}, {"measurement": "kon", "setting": "human IGF-2 [11]", "result": "3.97e+06", "unit": "M⁻¹ s⁻¹"}, {"measurement": "Kd", "setting": "mouse IGF-2 [12]", "result": 13400, "unit": "pM"}, {"measurement": "koff", "setting": "mouse IGF-2 [12]", "result": 0.011, "unit": "s⁻¹"}, {"measurement": "kon", "setting": "mouse IGF-2 [12]", "result": 868000, "unit": "M⁻¹ s⁻¹"}, {"measurement": "binding result", "setting": "human insulin", "result": "no binding (tested: 50 ng/mL)"}]}
{"binder": "B2", "values": [{"measurement": "IC50 of IGF-1 induced COLO-205 cell proliferation", "setting": "human IGF-1 [4]", "result": 0.135, "unit": "µg/mL"}, {"measurement": "IC50 of IGF-1 induced MCF7 cell proliferation", "setting": "human IGF-1 [4]", "result": 0.0241, "unit": "µg/mL"}, {"measurement": "IC50 of IGF-2 induced COLO 205 cell proliferation", "setting": "human IGF-2 [5]", "result": 0.576, "unit": "µg/mL"}, {"measurement": "IC50 of IGF-2 induced MCF7 cell proliferation", "setting": "human IGF-2 [5]", "result": 0.0782, "unit": "µg/mL"}, {"measurement": "Kd", "setting": "human IGF-1 [6]", "result": 180, "unit": "pM"}, {"measurement": "binding result", "setting": "rat IGF-1 [13]", "result": "binds"}, {"measurement": "binding result", "setting": "rat IGF-2 [14]", "result": "binds"}, {"measurement": "binding result", "setting": "mouse IGF-1 [15]", "result": "binds"}, {"measurement": "binding result", "setting": "mouse IGF-2 [16]", "result": "binds"}, {"measurement": "binding result", "setting": "human insulin", "result": "no binding (tested: 50 ng/mL)"}]}
{"binder": "B3", "values": [{"measurement": "IC50 of IGF-1 induced COLO-205 cell proliferation", "setting": "human IGF-1 [4]", "result": 0.217, "unit": "µg/mL"}, {"measurement": "IC50 of IGF-1 induced MCF7 cell proliferation", "setting": "human IGF-1 [4]", "result": 0.054, "unit": "µg/mL"}, {"measurement": "IC50 of IGF-2 induced COLO 205 cell proliferation", "setting": "human IGF-2 [5]", "result": 0.101, "unit": "µg/mL"}, {"measurement": "IC50 of IGF-2 induced MCF7 cell proliferation", "setting": "human IGF-2 [5]", "result": 0.0408, "unit": "µg/mL"}, {"measurement": "Kd", "setting": "human IGF-1 [6]", "result": 190, "unit": "pM"}, {"measurement": "binding result", "setting": "rat IGF-1 [13]", "result": "binds"}, {"measurement": "binding result", "setting": "rat IGF-2 [14]", "result": "binds"}, {"measurement": "binding result", "setting": "mouse IGF-1 [15]", "result": "binds"}, {"measurement": "binding result", "setting": "mouse IGF-2 [16]", "result": "binds"}, {"measurement": "binding result", "setting": "human insulin", "result": "no binding (tested: 50 ng/mL)"}]}
